Consider two molecules from patent US20030235860A1, “Interactions between AR, ER, TR2, and TR4” (priority 1999, published 2003).

For one experiment, the target named is T1, ER-ERE (Homo sapiens, UniProt P03372).
T1 construct: Human full-length ER was inserted into the EcoRI site of pSG5 to produce pSG5-ER; host or cells: TNT coupled reticulocyte lysate, in vitro translation
T1 sequence (P03372 1-595): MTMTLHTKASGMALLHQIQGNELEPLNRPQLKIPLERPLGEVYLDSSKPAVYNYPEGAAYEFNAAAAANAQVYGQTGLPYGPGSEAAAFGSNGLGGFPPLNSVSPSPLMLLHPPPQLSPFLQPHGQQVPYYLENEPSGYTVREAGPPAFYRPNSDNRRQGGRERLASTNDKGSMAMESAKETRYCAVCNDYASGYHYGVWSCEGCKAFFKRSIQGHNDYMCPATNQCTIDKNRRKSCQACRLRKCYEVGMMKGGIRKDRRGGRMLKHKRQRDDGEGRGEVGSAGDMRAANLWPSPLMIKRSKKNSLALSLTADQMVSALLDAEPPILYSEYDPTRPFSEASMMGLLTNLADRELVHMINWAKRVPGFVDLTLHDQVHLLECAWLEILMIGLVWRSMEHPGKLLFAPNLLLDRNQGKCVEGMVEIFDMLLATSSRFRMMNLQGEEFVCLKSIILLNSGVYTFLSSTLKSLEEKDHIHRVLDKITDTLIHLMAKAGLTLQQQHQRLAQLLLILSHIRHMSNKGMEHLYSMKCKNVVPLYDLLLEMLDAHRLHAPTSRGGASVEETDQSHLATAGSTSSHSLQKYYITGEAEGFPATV
Put plainly: EMSA with ERE probe. The experiment is classed as binding. (A gel shift assay detects complexes by their altered migration in electrophoresis.)

A further experiment deals with T2, ERβ (Mus musculus, UniProt O08537).
T2 construct: expressed in transfected cells; host or cells: HEK293 (TR2 experiment), H1299 (TR4 experiment)
T2 sequence (O08537 whole entry): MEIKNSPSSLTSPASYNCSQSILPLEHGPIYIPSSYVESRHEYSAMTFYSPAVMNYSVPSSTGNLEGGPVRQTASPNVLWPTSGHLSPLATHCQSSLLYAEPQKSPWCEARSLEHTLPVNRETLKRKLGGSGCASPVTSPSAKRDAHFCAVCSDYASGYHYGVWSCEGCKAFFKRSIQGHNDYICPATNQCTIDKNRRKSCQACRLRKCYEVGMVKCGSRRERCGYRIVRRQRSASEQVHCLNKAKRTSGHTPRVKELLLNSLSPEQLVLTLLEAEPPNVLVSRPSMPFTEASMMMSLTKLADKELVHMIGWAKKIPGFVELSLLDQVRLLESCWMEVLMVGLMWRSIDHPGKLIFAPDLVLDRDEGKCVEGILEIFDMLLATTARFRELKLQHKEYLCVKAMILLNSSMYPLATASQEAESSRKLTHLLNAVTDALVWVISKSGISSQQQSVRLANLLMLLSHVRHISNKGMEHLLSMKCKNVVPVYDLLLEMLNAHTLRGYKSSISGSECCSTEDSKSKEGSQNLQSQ
Nature of the experiment: ERβ-mediated transactivation (ERE reporter). It counts as cell-based. The method, then:
(A) TR2 repression of ER-mediated ERE-tk-CAT reporter genes in PC-3, H1299, MCF7, and T47D cells. Cells in 60-mm dishes were co-transfected with […] of ERE-CAT, pSG5-ER, and/or pCMV-TR2 by calcium phosphate precipitation methods. 1 mg of b-galactosidase expression plasmid, pCMV-b-gal, was used as an internal control for transfection efficiency. CAT activity is presented relative to the response to ethanol, which is set as one. (B) MCF7-pBIG and MCF7-TR2 cells were stably transfected with doxycycline-inducible pBIG2i and pBIG2I-FLAG-TR2 plasmids, respectively. Cells were transfected with […] of pCMV-b-gal and, after 16 hr, were treated with or without […] doxycycline. […] FLAG-TR2 induction was monitored by Western blotting using anti-FLAG antibody (M2), shown in the upper panel. […] Relative mRNA expression amounts were normalized by 28S expression and quantitated by ImageQuant V.1.2 (Molecular Dynamics). […] Luciferase activity was analyzed following manufacturer's instructions (Promega). […]
H1299 and MCF-7 cells were maintained in Dulbecco's modified eagle medium (DMEM) containing penicillin (25 units/ml), streptomycin (25 μg/ml), and 10% fetal calf serum (FBS). […] The CAT activity was visualized by Phosphorlmager (Molecular Dynamics) and quantitated by IMAGEQUANT software (Molecular Dynamics). The luciferase activity was determined by the Luminometer (Turner Designs).

B1: TR4: human testicular orphan nuclear receptor 4, SEQ ID NO:16; expressed from plasmid or in vitro translated (protein)
chain: MTSPSPRIQIISTDSAVASPQRIQGSEPASGPLSVFTSLNKEKIVTDQQTGQKIQIVTAVDASGSPKQQFILTSPDGAGTGKVILASPETSSAKQLIFTTSDNLVPGRIQIVTDSASVERLLGKTDVQRPQVVEYCVVCGDKASGRHYGAVSCEGCKGFFKRSVRKNLTYSCRSSQDCIINKHHRNRCQFCRLKKCLEMGMKMESVQSERKPFDVQREKPSNCAASTEKIYIRKDLRSPLIATPTFVADKDGARQTGLLDPGMLVNIQQPLIREDGTVLLATDSKAETSQGALGTLANVVTSLANLSESLNNGDTSEIQPEDQSASEITRAFDTLAKALNTTDSSSSPSLADGIDTSGGGSIHVISRDQSTPIIEVEGPLLSDTHVTFKLTMPSPMPEYLNVHYICESASRLLFLSMHRARSIPAFQGLGQDCNTSLVRACWNELFTLGLAQCAQVMSLSTILAAIVNHLQNSIQEDKLSGDRIKQVMEHIWKLQEFCNSMANWDIDGYEYAYLKAIVLFSPDHPGLTSTSQIEKFQEKAQMELQDYVQKTYSEDTYRLARILVRLPALRLMSSNITEELFFTGLIGNVSIDSIIPYILKMETAEYNGQITGVSL
Consider B1, for which the “ER-[32P]ERE binding band” value with ER-ERE (increasing amounts of in vitro expressed TR4) is “reduced”. Besides, the “E2-induced ERE-CAT activity, ERβ” value in the experiment with ERβ (H1299 cells, 10 nM E2, increasing TR4 expression plasmid) is listed as “suppression of the E2-induced CAT activity in a dose-dependent manner”.

B2: TR2: human testicular orphan nuclear receptor 2, 603 amino acids (protein, UniProt P13056 1-603, looked up)
chain: MATIEEIAHQIIEQQMGEIVTEQQTGQKIQIVTALDHNTQGKQFILTNHDGSTPSKVILARQDSTPGKVFLTTPDAAGVNQLFFTTPDLSAQHLQLLTDNSPDQGPNKVFDLCVVCGDKASGRHYGAVTCEGCKGFFKRSIRKNLVYSCRGSKDCIINKHHRNRCQYCRLQRCIAFGMKQDSVQCERKPIEVSREKSSNCAASTEKIYIRKDLRSPLTATPTFVTDSESTRSTGLLDSGMFMNIHPSGVKTESAVLMTSDKAESCQGDLSTLANVVTSLANLGKTKDLSQNSNEMSMIESLSNDDTSLCEFQEMQTNGDVSRAFDTLAKALNPGESTACQSSVAGMEGSVHLITGDSSINYTEKEGPLLSDSHVAFRLTMPSPMPEYLNVHYIGESASRLLFLSMHWALSIPSFQALGQENSISLVKAYWNELFTLGLAQCWQVMNVATILATFVNCLHNSLQQDKMSTERRKLLMEHIFKLQEFCNSMVKLCIDGYEYAYLKAIVLFSPDHPSLENMEQIEKFQEKAYVEFQDYITKTYPDDTYRLSRLLLRLPALRLMNATITEELFFKGLIGNIRIDSVIPHILKMEPADYNSQIIGHSI
modifications: full-length
notes: human testicular orphan nuclear receptor 2, 603 amino acids
As for B2, in the experiment with ER-ERE (increasing amount of TR2, absence or presence of 1 μM E2, Example 1), the “Intensity of ER-ERE supershift” value is “decreased”. For the same molecule, the “Intensity of ER-ERE complexes” value with ER-ERE (increasing amounts of TR2, absence or presence of 10 nM E2, Example 2) was “decreased”. Besides, the “ERβ-mediated transcription (ERE-Luc)” value in the experiment with ERβ (HEK293 cells, TR2) is given as “suppress”.
